These are literature values, as cited in publication PMC7094366.

pKd: −log10 of the molar value.

The target in this data set is SARS-CoV 3C-like proteinase (Severe acute respiratory syndrome coronavirus) (UniProt P0C6X7).

As to “SARS-CoV 3C-like proteinase (from UniProt P0C6X7)”, the pKd was 4.00.

One may read the pKd as the negative decadic logarithm of the Kd, by convention in mol/L.
